# Results published in US20250121086A1, “LIVER-TARGETED SUBSTANCE AND USE THEREOF” (HANMI PHARM. CO., LTD., priority 2021, published 2025).
# Bridge positions count the residues as written; N and C are the ends. Square brackets hold non-standard residues; d marks the D form. Ends that are not written are not given here. Aib = CC(C)(N)C(=O)O
# Target: human glucagon receptor (human, UniProt P47871 26-477)
# Experiment: cell-based or functional assay
# Sequence of human glucagon receptor (P47871 26-477): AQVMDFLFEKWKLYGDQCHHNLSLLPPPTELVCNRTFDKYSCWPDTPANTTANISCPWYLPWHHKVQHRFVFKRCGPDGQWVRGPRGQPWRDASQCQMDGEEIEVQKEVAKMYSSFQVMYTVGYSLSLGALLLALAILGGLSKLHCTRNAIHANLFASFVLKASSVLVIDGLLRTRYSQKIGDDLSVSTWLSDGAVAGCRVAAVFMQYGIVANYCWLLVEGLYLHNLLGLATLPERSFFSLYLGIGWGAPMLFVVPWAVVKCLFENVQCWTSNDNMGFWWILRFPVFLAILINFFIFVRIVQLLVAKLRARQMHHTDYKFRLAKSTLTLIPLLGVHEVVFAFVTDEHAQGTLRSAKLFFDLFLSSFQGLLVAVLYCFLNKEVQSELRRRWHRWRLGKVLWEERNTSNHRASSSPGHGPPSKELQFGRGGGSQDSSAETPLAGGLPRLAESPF
row,Binder,"In vitro activity (relative activity compared with SEQ ID NO: 1, %); cAMP EC50 in CHO cells expressing human GCG receptor"
1,Y[Aib]QGTFTSDYSKYLDEKRCKEFVQWLMNT (lactam 16-20) [glucagon derivative peptide of SEQ ID NO: 22],148%
2,Y[Aib]QGTFTSDYSKYLDSCDADDFVVWLINT [glucagon derivative peptide of SEQ ID NO: 10],< 0.1%
3,W[Aib]QGTFTSDYSKYLDECRAKDFVQWLMNT (lactam 16-20) [glucagon derivative peptide of SEQ ID NO: 26],1%
4,Y[Aib]QGTFCSDYSKYLDERRAKDFVQWLMNT (lactam 16-20) [glucagon derivative peptide of SEQ ID NO: 41],45.2%
5,HSQGTFTSDYSKYLDSCEAQDFVQWLMNT [glucagon derivative peptide of SEQ ID NO: 5],0.3%
6,Y[Aib]QGTFTSDYSKYLDSCDAQDFVVWLINT [glucagon derivative peptide of SEQ ID NO: 9],< 0.1%
7,Y[Aib]QGTFVSDYSKYLDECRAKDFVQWLMNT (lactam 16-20) [glucagon derivative peptide of SEQ ID NO: 27],93.6%
8,Y[Aib]QGTFTSDYSKYLDEKRAKCFVQWLMNT (lactam 16-20) [glucagon derivative peptide of SEQ ID NO: 25],46.9%
9,W[Aib]QGTFTSDYSKCLDERRAKDFVQWLMNT (lactam 16-20) [glucagon derivative peptide of SEQ ID NO: 30],0.3%
10,Y[Aib]QGTFCSDYSKYLDSRRAQDFVQWLMNT [glucagon derivative peptide of SEQ ID NO: 42],37.9%
11,Y[Aib]QGTFTSDYSKYLCEKRAKEFVQWLMNT (lactam 16-20) [glucagon derivative peptide of SEQ ID NO: 19],12.1%
12,HSQGTFTSDYSKYLDCDRAQDFVQWLMNT [glucagon derivative peptide of SEQ ID NO: 2],0.6%
13,Y[Aib]QGTFTSDYSCYLDSRRAQDFVQWLMNT [glucagon derivative peptide of SEQ ID NO: 13],5.2%
14,Y[Aib]QGTFTSDYSKCLDEKRAKEFVQWLMNT (lactam 16-20) [glucagon derivative peptide of SEQ ID NO: 24],58%
15,Y[Aib]QGTFTSDYSKYLDCKRAKEFVQWLMNT (lactam 17-21) [glucagon derivative peptide of SEQ ID NO: 31],6.3%
16,W[Aib]QGTFVSDYSKYLDECRAKDFVQWLMNT (lactam 16-20) [glucagon derivative peptide of SEQ ID NO: 28],< 0.1%
17,Y[Aib]QGTFTSDYSKYLDECRAKEFVQWLMNT (lactam 16-20) [glucagon derivative peptide of SEQ ID NO: 20],300%
18,Y[Aib]QGTFCSDYSKYLDERRAKEFVQWLMNT (lactam 16-20) [glucagon derivative peptide of SEQ ID NO: 38],167%
19,W[Aib]QGTFTSDYSKYCDERRAKEFVQWLMNT (lactam 16-20) [glucagon derivative peptide of SEQ ID NO: 34],0.2%
20,Y[Aib]QGTFTSDYSKCLDERRAKDFVQWLMNT (lactam 16-20) [glucagon derivative peptide of SEQ ID NO: 29],61.3%
21,YSQGTFTSDYSKYLDSCEADDFVQWLMNT [glucagon derivative peptide of SEQ ID NO: 7],< 0.1%
22,Y[Aib]QGTFTSDYSKYCDERRAKEFVQWLMNT (lactam 16-20) [glucagon derivative peptide of SEQ ID NO: 35],17.7%

row,Binder,"In vitro activity (relative activity compared with SEQ ID NO: 1, %); cAMP EC50 in CHO cells expressing human GCG receptor"
1,Y[Aib]QGTFTSDYSKYLDCVRAQDFVQWLMRT [glucagon derivative peptide of SEQ ID NO: 17],23.2%
2,Y[Aib]QGTFTSDYSKYLDSCDAQDFVQWLINT [glucagon derivative peptide of SEQ ID NO: 8],< 0.1%
3,YXQGTFTSDYSKYLDSRRAQDFVQWLMNTC (aminoisobutyric acid (Aib) at position 2 (printed X)) [glucagon derivative peptide of SEQ ID NO: 44],75.4%
4,Y[Aib]QGTFVSDCSKYLDERRAKDFVQWLMNT (lactam 16-20) [glucagon derivative peptide of SEQ ID NO: 39],3.7%
5,SQGTFTSDYSKYLDECRAKEFVQWLMNT (lactam 15-19) [glucagon derivative peptide of SEQ ID NO: 32],0.7%
6,Y[Aib]QGTFTSDYSKYLDCKRAKEFVQWLMNT [glucagon derivative peptide of SEQ ID NO: 14],18.1%
7,Y[Aib]QGTFTSDCSKYLDSRRAQDFVQWLMNT [glucagon derivative peptide of SEQ ID NO: 43],1.6%
8,Y[Aib]QGTFTSDYSCYLDEKRAKEFVQWLMNT [glucagon derivative peptide of SEQ ID NO: 45],5.2%
9,HSQGTFTSDYSKYLDSCDAQDFVQWLMNT [glucagon derivative peptide of SEQ ID NO: 4],< 0.1%
10,Y[Aib]QGTFTSDYSKYLDSRRACDFRLWLMNT [glucagon derivative peptide of SEQ ID NO: 18],< 0.1%
11,Y[Aib]QGTFTSDYSKYLDCRRAQVFVQWLMRT [glucagon derivative peptide of SEQ ID NO: 16],4.2%
12,Y[Aib]QGTFTSDYSKYLDEKCAKEFVQWLMNT [glucagon derivative peptide of SEQ ID NO: 11],4.6%
13,Y[Aib]QGTFVSDYSKYLDERRAKDFVQWLMNTC (lactam 16-20) [glucagon derivative peptide of SEQ ID NO: 40],40.8%
14,HSQGTFTSDYSKYLDSCEADDFVQWLMNT [glucagon derivative peptide of SEQ ID NO: 6],< 0.1%
15,Y[Aib]QGTFTSDYSKYCDEKRAKEFVQWLMNT (lactam 16-20) [glucagon derivative peptide of SEQ ID NO: 23],76.8%
16,HSQGTFTSDYSKYLDCERAQDFVQWLMNT [glucagon derivative peptide of SEQ ID NO: 3],6.1%
17,Y[Aib]QGTFTSDYSKYLDERRAKEFVQWLMNTC (lactam 16-20) [glucagon derivative peptide of SEQ ID NO: 37],226%
18,Y[Aib]QGTFTSDYSKYLDEKCAKEFVQWLMNT (lactam 16-20) [glucagon derivative peptide of SEQ ID NO: 21],57.8%
19,Y[Aib]QGTFTSDCSKYLDERRAKEFVQWLMNT (lactam 16-20) [glucagon derivative peptide of SEQ ID NO: 36],9.9%
20,Y[Aib]QGTFTSDYSKYLCEKRAQDFVVWLMNT [glucagon derivative peptide of SEQ ID NO: 15],1.1%
21,YXQGTFTSDYSKYLDSRRAQDFVQWLMNT (aminoisobutyric acid (Aib) at position 2 (printed X)) [glucagon derivative peptide of SEQ ID NO: 33],108%
